# Numbering of substitutions follows the chain as printed.
# T1: selenomethionine-substituted Ups1 (Saccharomyces cerevisiae, UniProt Q05776 1-175, selenomethionine-substituted)
# T1 construct: Ups1, Saccharomyces cerevisiae, full length, selenomethionine in place of methionine; also called SeMet-labeled Ups1; Ups1A; source: selenomethionine-derived Ups1/Mdm35 complex; expression of the SeMet form not described
# T1 sequence (looked up): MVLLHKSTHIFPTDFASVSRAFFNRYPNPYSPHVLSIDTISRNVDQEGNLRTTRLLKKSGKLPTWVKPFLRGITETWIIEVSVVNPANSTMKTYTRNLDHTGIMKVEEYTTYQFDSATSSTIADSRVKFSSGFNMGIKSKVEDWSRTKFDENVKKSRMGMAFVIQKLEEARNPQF
# T2: Ups1-4E mutant (Saccharomyces cerevisiae, UniProt Q05776 1-175, K140E | R146E | K154E | K166E)
# T2 construct: Ups1, Saccharomyces cerevisiae, mutant of the full-length wild-type construct; limits not restated for the mutant; also called K140E/R146E/K154E/K166E; source: gene synthesized (Beijing SYKM); E. coli Trans B, purified with Mdm35
# T2 sequence (looked up): T1 sequence (looked up) with K140E, R146E, K154E, K166E
# T3: Ups1 F69L mutant (Saccharomyces cerevisiae, UniProt Q05776 1-175, F69L)
# T3 construct: Ups1, Saccharomyces cerevisiae, mutant of the full-length wild-type construct; limits not restated for the mutant; source: gene synthesized (Beijing SYKM); E. coli Trans B, purified with Mdm35
# T3 sequence (looked up): T1 sequence (looked up) with F69L
# T4: Ups1-2E mutant (Saccharomyces cerevisiae, UniProt Q05776 1-175, K140E | R146E)
# T4 construct: Ups1, Saccharomyces cerevisiae, mutant of the full-length wild-type construct; limits not restated for the mutant; also called K140E/R146E; source: gene synthesized (Beijing SYKM); E. coli Trans B, purified with Mdm35
# T4 sequence (looked up): T1 sequence (looked up) with K140E, R146E
# T5: Ups1-3E mutant (Saccharomyces cerevisiae, UniProt Q05776 1-175, K140E | R146E | K154E)
# T5 construct: Ups1, Saccharomyces cerevisiae, mutant of the full-length wild-type construct; limits not restated for the mutant; also called K140E/R146E/K154E; source: gene synthesized (Beijing SYKM); E. coli Trans B, purified with Mdm35
# T5 sequence (looked up): T1 sequence (looked up) with K140E, R146E, K154E
# T6: Ups1 (N-terminal 6x His-tagged full-length Ups1) (Saccharomyces cerevisiae, UniProt Q05776 1-175)
# T6 construct: Ups1, Saccharomyces cerevisiae, full length, amplified from genomic DNA; Always handled as the co-expressed complex with Mdm35 or an Mdm35 truncation; also called WT; wild-type Ups1/Mdm35 (Ups1 chain); source: E. coli Trans B, co-expressed with Mdm35 from pETDuet-1, purified (Ni-chelated Sepharose, Superdex 75)
# T6 sequence (looked up): T1 sequence (looked up)
# B1: selenomethionine-substituted Mdm35 (natural protein, Saccharomyces cerevisiae, UniProt O60200 1-86, looked up)
# chain: MGNIMSASFAPECTDLKTKYDSCFNEWYSEKFLKGKSVENECSKQWYAYTTCVNAALVKQGIKPALDEAREEAPFENGGKLKEVDK
# modifications: selenomethionine-substituted
# notes: Mdm35, Saccharomyces cerevisiae, full length, selenomethionine in place of methionine; also called SeMet-labeled Mdm35; Mdm35A; source: selenomethionine-derived Ups1/Mdm35 complex; expression of the SeMet form not described
# B2: Mdm35 (full-length) (natural protein, Saccharomyces cerevisiae, UniProt O60200 1-86, looked up)
# chain: B1 chain
# notes: Mdm35, Saccharomyces cerevisiae, full length, amplified from genomic DNA; Two disulfide bridges (C13-C52 and C23-C42) between the αA and αB helices are seen in the structure; also called WT; wild-type Ups1/Mdm35 (Mdm35 chain); source: E. coli Trans B, co-expressed with His-tagged Ups1 from pETDuet-1, purified (Ni-chelated Sepharose, Superdex 75)
# B3: Mdm35ΔC5 (domain or fragment, Saccharomyces cerevisiae, UniProt O60200 1-81, looked up)
# chain: MGNIMSASFAPECTDLKTKYDSCFNEWYSEKFLKGKSVENECSKQWYAYTTCVNAALVKQGIKPALDEAREEAPFENGGKL
# notes: Mdm35, Saccharomyces cerevisiae, lacking the five C-terminal residues K82–K86; Limit worked out from the stated deletion K82–K86; also called Ups1/Mdm35ΔC5 (Mdm35 chain); source: gene synthesized (Beijing SYKM); E. coli Trans B, purified with Ups1
# B4: Mdm35ΔC14 (domain or fragment, Saccharomyces cerevisiae, UniProt O60200 1-72, looked up)
# chain: MGNIMSASFAPECTDLKTKYDSCFNEWYSEKFLKGKSVENECSKQWYAYTTCVNAALVKQGIKPALDEAREE
# notes: Mdm35, Saccharomyces cerevisiae, lacking the 14 C-terminal residues A73–K86; Limit worked out from the stated deletion A73–K86; also called Ups1/Mdm35ΔC14 (Mdm35 chain); source: gene synthesized (Beijing SYKM); E. coli Trans B, purified with Ups1
# How the values were obtained:
# Conditions in all cases: both partners purified
# [1] = biological target: T1, selenomethionine-substituted Ups1; experiment: crystal structure; selenomethionine-substituted Ups1/Mdm35, SAD, 2.9 Å; hanging drop, 16 °C, 8% tacsimate pH 5.0, 20% PEG3350, sodium thiocyanate
# [2] = biological target: T2, Ups1-4E mutant; experiment: co-sedimentation; liposome co-sedimentation: 20 μM Ups1/Mdm35 or mutants with DOPC/DOPA = 80/20 liposomes (8 mM), 20 mM Tris-HCl pH 7.5, 150 mM NaCl, 1 mM EDTA, 25 °C, 30 min; 250,000 g; Mdm35 in the pellet taken as complexed with liposome-bound Ups1
# [3] = biological target: T3, Ups1 F69L mutant; experiment: as above
# [4] = biological target: T4, Ups1-2E mutant; experiment: as above
# [5] = biological target: T5, Ups1-3E mutant; experiment: as above
# [6] = biological target: T6, Ups1 (N-terminal 6x His-tagged …); experiment: SEC; gel filtration of the Ups1/Mdm35 truncation mutants (Supplementary Fig. 8a)
binder,measurement,setting,value
B1,binding result,[1],binds
B2,binding result,[2],binds
same,binding result,[3],binds
same,binding result,[4],binds
same,binding result,[5],binds
B3,binding result,[6],binds
B4,binding result,[6],binds
